Literature values as cited in publication PMC10999626.

Target: FcRn (Mus musculus) (UniProt Q61559)
Experiment: BLI

Sequence of FcRn (Mus musculus) (Q61559 22-365): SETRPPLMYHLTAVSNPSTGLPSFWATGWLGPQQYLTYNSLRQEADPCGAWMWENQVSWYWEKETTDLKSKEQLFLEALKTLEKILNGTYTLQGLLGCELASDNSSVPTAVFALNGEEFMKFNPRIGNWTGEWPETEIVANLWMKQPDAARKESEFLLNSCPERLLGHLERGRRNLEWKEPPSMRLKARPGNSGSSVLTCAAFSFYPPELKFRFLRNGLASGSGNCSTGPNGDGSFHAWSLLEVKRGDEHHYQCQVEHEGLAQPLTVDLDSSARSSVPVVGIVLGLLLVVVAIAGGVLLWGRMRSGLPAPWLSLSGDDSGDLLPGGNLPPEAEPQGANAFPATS
Sequence of human IgG4 (P01861 whole entry): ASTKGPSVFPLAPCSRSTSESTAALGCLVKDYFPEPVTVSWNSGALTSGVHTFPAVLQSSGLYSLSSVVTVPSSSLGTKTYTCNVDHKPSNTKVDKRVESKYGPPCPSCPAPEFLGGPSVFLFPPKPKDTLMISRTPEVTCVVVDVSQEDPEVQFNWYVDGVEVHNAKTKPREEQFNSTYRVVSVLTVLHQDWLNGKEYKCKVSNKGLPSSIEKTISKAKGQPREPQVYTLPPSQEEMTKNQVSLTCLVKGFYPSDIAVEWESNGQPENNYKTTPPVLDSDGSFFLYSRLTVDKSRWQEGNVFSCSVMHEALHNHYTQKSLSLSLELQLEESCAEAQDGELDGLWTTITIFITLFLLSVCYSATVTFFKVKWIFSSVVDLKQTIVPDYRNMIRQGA

Kd: 6 nM
Substance: human IgG4 (from UniProt P01861)
